Reference: article PMC10092763

Biological target: PAX2 (UniProt Q02962)
Assay: co-IP, FLAG-PAX2 with HA-AFF4
Conditions: reference: wild type; sites S388

binding against the reference: weaker
Substance: AFF4 (from UniProt Q9UHB7) S388A
